# Laboratory results reported in paper PMC11208152, “Dynamic Arabidopsis P5CS filament facilitates substrate channelling” (Nature Plants, 2024).
# B1: Arabidopsis thaliana delta-1-pyrroline-5-carboxylate synthase 2 (AtP5CS2), wild type (enzyme, UniProt P54888 1-726, looked up)
# chain: MTEIDRSRAFAKDVKRIVVKVGTAVVTGKGGRLALGRLGAICEQLAELNSDGFEVILVSSGAVGLGRQRLRYRQLVNSSFADLQKPQMELDGKACAGVGQSSLMAYYETMFDQLDVTVAQMLVTDSSFRDKDFRKQLSETVKAMLRMRVIPVFNENDAISTRRAPYKDSTGIFWDNDSLAALLSLELKADLLILLSDVEGLYTGPPSDSTSKLIHTFIKEKHQDEITFGEKSKLGRGGMTAKVKAAVNAAYGGVPVIITSGYAAENISKVLRGLRVGTLFHQDAHLWAPVVDTTSRDMAVAARESSRKLQALSSEDRKQILHDIANALEVNEKTIKAENDLDVAAAQEAGYEESLVARLVMKPGKISSLAASVRQLAEMEDPIGRVLKKTQVADDLILEKTSSPIGVLLIVFESRPDALVQIASLAIRSGNGLLLKGGKEARRSNAILHKVITDAIPETVGGKLIGLVTSREEIPDLLKLDDVIDLVIPRGSNKLVSQIKNSTKIPVLGHADGICHVYVDKSGKLDMAKRIVSDAKLDYPAACNAMETLLVHKDLEQNGFLDDLIYVLQTKGVTLYGGPRASAKLNIPETKSFHHEYSSKACTVEIVEDVYGAIDHIHQHGSAHTDCIVTEDSEVAEIFLRQVDSAAVFHNASTRFSDGFRFGLGAEVGISTSRIHARGPVGVEGLLTTRWIMRGKGQVVDGDNGIVYTHKDLPVLQRTEAVENGI
# notes: Delta-1-pyrroline-5-carboxylate synthase 2 (P5CS2) of Arabidopsis thaliana; In the filament the helical unit is a tetramer (GK tetramer core, two GPR dimers); Only the GK tetramer was modelled at high resolution; also called AtP5CS2-WT; WT AtP5CS2; source: E. coli Rosetta (DE3), purified (Ni-NTA, SUMO-tag removed with yeast ULP1, Superose 6 Increase SEC); not shown: His6, N-terminal, cleaved; …
# B2: AtP5CS2-GK, truncated AtP5CS2 consisting of residues 1-290 (glutamate kinase domain) (domain or fragment, Arabidopsis thaliana, UniProt P54888 1-290, looked up)
# chain: MTEIDRSRAFAKDVKRIVVKVGTAVVTGKGGRLALGRLGAICEQLAELNSDGFEVILVSSGAVGLGRQRLRYRQLVNSSFADLQKPQMELDGKACAGVGQSSLMAYYETMFDQLDVTVAQMLVTDSSFRDKDFRKQLSETVKAMLRMRVIPVFNENDAISTRRAPYKDSTGIFWDNDSLAALLSLELKADLLILLSDVEGLYTGPPSDSTSKLIHTFIKEKHQDEITFGEKSKLGRGGMTAKVKAAVNAAYGGVPVIITSGYAAENISKVLRGLRVGTLFHQDAHLWAPV
# notes: Delta-1-pyrroline-5-carboxylate synthase 2 (P5CS2) of Arabidopsis thaliana, residues 1-290, the glutamate kinase (GK) domain; probably made as His6-SUMO fusion in E. coli and cleaved with ULP1 like the full-length AtP5CS2 (surmised); also called AtP5CS2 GK domain
# B3: Arabidopsis thaliana delta-1-pyrroline-5-carboxylate synthase 1 (AtP5CS1) (enzyme, UniProt P54887 1-717, looked up)
# chain: MEELDRSRAFARDVKRIVVKVGTAVVTGKGGRLALGRLGALCEQLAELNSDGFEVILVSSGAVGLGRQRLRYRQLVNSSFADLQKPQTELDGKACAGVGQSSLMAYYETMFDQLDVTAAQLLVNDSSFRDKDFRKQLNETVKSMLDLRVIPIFNENDAISTRRAPYQDSSGIFWDNDSLAALLALELKADLLILLSDVEGLYTGPPSDPNSKLIHTFVKEKHQDEITFGDKSRLGRGGMTAKVKAAVNAAYAGIPVIITSGYSAENIDKVLRGLRVGTLFHQDARLWAPITDSNARDMAVAARESSRKLQALSSEDRKKILLDIADALEANVTTIKAENELDVASAQEAGLEESMVARLVMTPGKISSLAASVRKLADMEDPIGRVLKKTEVADGLVLEKTSSPLGVLLIVFESRPDALVQIASLAIRSGNGLLLKGGKEARRSNAILHKVITDAIPETVGGKLIGLVTSREEIPDLLKLDDVIDLVIPRGSNKLVTQIKNTTKIPVLGHADGICHVYVDKACDTDMAKRIVSDAKLDYPAACNAMETLLVHKDLEQNAVLNELIFALQSNGVTLYGGPRASKILNIPEARSFNHEYCAKACTVEVVEDVYGAIDHIHRHGSAHTDCIVTEDHEVAELFLRQVDSAAVFHNASTRFSDGFRFGLGAEVGVSTGRIHARGPVGVEGLLTTRWIMRGKGQVVDGDNGIVYTHQDIPIQA
# notes: Delta-1-pyrroline-5-carboxylate synthase 1 (P5CS1) of Arabidopsis thaliana; also called His6-AtP5CS1; not shown: His6, N-terminal, kept
# Columns and labels:
# [1] = biological target: the molecule itself; test: cryo-EM structure; mixed state: about 5 μM purified protein in reaction buffer with all substrates (25 mM Tris-HCl pH 8.0, 150 mM NaCl, 20 mM glutamate, 10 mM MgCl2, 5 mM ATP, 0.5 mM NADPH), on ice about 30 min (AtP5CS1) or 60 min (AtP5CS2); filament of tetrameric helical units, focus refinement on the GK tetramer
# [2] = biological target: the molecule itself; test: negative-staining EM; purified protein about 2-4 μM incubated at 25 °C with substrates (ATP, glutamate, both, or all substrates = mixed state) at the concentrations of the activity assay; step seen: oligomers (tetramers) into filaments
protein,measurement,setting,value
B1,stoichiometry N,[1],4
B2,binding result,[2],binds
B3,stoichiometry N,[1],4
